In article PMC10002728:

B1: human complement C1r, zymogen form (enzyme)
chain: SIPIPQKLFGEVTSPLFPKPYPNNFETTTVITVPTGYRVKLVFQQFDLEPSEGCFYDYVKISADKKSLGRFCGQLGSPLGNPPGKKEFMSQGNKMLLTFHTDFSNEENGTIMFYKGFLAYYQAVDLDECASRSKSGEEDPQPQCQHLCHNYVGGYFCSCRPGYELQEDTHSCQAECSSELYTEASGYISSLEYPRSYPPDLRCNYSIRVERGLTLHLKFLEPFDIDDHQQVHCPYDQLQIYANGKNIGEFCGKQRPPDLDTSSNAVDLLFFTDESGDSRGWKLRYTTEIIKCPQPKTLDEFTIIQNLQPQYQFRDYFIATCKQGYQLIEGNQVLHSFTAVCQDDGTWHRAMPRCKIKDCGQPRNLPNGDFRYTTTMGVNTYKARIQYYCHEPYYKMQTRAGSRESEQGVYTCTAQGIWKNEQKGEKIPRCLPVCGKPVNPVEQRQRIIGGQKAKMGNFPWQVFTNIHGRGGGALLGDRWILTAAHTLYPKEHEAQSNASLDVFLGHTNVEELMKLGNHPIRRVSVHPDYRQDESYNFEGDIALLELENSVTLGPNLLPICLPDNDTFYDLGLMGYVSGFGVMEEKIAHDLRFVRLPVANPQACENWLRGKNRMDVFSQNMFCAGHPSLKQDACQGDSGGVFAVRDPNTDRWVATGIVSWGIGCSRGYGFYTKVLNYVDWIKKEMEEED
B2: human complement C1r, activated form (enzyme)
chain: B1 chain

Key:
Experiment in all cases: SPR
[1] = molecular target: FbpC-C R248A (Borrelia hermsii strain HS1)
[2] = molecular target: B. hermsii strain HS1 FbpC C-terminal complement inhibitory domain, residues 212-374 (Borrelia hermsii strain HS1)
[3] = molecular target: FbpC-C H252A (Borrelia hermsii strain HS1)

Binder | Kd [1] | koff [1] | kon [1] | Kd [2] | koff [2] | kon [2] | Kd [3] | koff [3] | kon [3]
B1 | 13 nM | 0.00063 s⁻¹ | 69000 M⁻¹ s⁻¹ | 1.2 nM | 5.4e-05 s⁻¹ | 44000 M⁻¹ s⁻¹ |  |  | 
B2 | 0.19 nM | 9.4e-06 s⁻¹ | 45000 M⁻¹ s⁻¹ | 0.3 nM | 1.4e-05 s⁻¹ | 48000 M⁻¹ s⁻¹ | 2.4 nM | 0.00012 s⁻¹ | 51000 M⁻¹ s⁻¹
